Measurements as given in patent publication US20240075157A1 (MAGENTA THERAPEUTICS, published 2024).

Key:
[1] = target: T1, hFcγR3A 176V (human, UniProt P08637 17-208, tagged with biotin or histidine (which one is not stated for this receptor)); experiment: BLI
[2] = target: T2, hFcγR2B (human, UniProt P31994 46-217, tagged with biotin or histidine (which one is not stated for this receptor)); experiment: BLI
T2 sequence (looked up): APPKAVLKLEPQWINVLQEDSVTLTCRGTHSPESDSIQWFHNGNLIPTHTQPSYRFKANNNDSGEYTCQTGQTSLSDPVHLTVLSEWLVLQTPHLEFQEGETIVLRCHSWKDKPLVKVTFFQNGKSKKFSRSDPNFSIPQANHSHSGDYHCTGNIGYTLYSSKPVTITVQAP

[3] = target: T2, hFcγR2B; experiment: BLI, Bio-hFcR2B
Protocol: (§1) To identify Fc modifications that abrogate Fc gamma receptor binding and thereby silence antibody effector functions, IgG antibodies containing one or more amino acid substitution in the Fc region were assessed in an Octet binding assay to measure their ability to bind to different Fc gamma receptors.
(§2) The binding assays were performed at 25° C. in phosphate buffered saline with (0.1% BSA, 0.02% Tween-20) using Bio-Layer Interferometry Device (ForteBio).

[4] = target: T1, hFcγR3A 176V; experiment: BLI, Bio-hFcR3A 176V
Protocol: as §1, §2

T1 sequence (P08637 17-208 F176V limits assumed): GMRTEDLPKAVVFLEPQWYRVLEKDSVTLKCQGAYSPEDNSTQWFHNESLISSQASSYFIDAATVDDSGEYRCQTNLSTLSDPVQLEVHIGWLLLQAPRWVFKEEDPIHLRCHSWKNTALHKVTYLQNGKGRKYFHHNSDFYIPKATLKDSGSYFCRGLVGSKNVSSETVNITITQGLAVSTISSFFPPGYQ

binding result [1]: no binding (tested: 300 nM)
binding result [2]: no binding (tested: 300 nM)
Normalized Response [3]: 4 % of WT
Normalized Response [4]: 1 % of WT
B1: Ab2 D265C N297Q H435A (antibody, human IgG1, kappa, N297Q)
heavy: EVQLVQSGAEVKKPGESLKISCKGSGYSFTNYWIGWVRQMPGKGLEWMAIINPRDSDTRYRPSFQGQVTISADKSISTAYLQWSSLKASDTAMYYCARHGRGYEGYEGAFDIWGQGTLVTVSSASTKGPSVFPLAPSSKSTSGGTAALGCLVKDYFPEPVTVSWNSGALTSGVHTFPAVLQSSGLYSLSSVVTVPSSSLGTQTYICNVNHKPSNTKVDKKVEPKSCDKTHTCPPCPAPELLGGPSVFLFPPKPKDTLMISRTPEVTCVVVCVSHEDPEVKFNWYVDGVEVHNAKTKPREEQYQSTYRVVSVLTVLHQDWLNGKEYKCKVSNKALPAPIEKTISKAKGQPREPQVYTLPPSRDELTKNQVSLTCLVKGFYPSDIAVEWESNGQPENNYKTTPPVLDSDGSFFLYSKLTVDKSRWQQGNVFSCSVMHEALHNAYTQKSLSLSPGK
light: not shown
notes: copies: 2 + 2
